Experimental data published in PMC10191332.

Target: recombinant His-gH/gL (HCMV), purified (HCMV) (UniProt P12824)
Test: BLI

EphA2 extracellular domain (27-534), purified (from UniProt P29317 27-534) (domain or fragment)
Kd: 36.4 nM
